Measured values as given in patent publication US20240132578A1.

Columns and labels:
Assay in all cases: cell-based or functional assay
[1] = target: HIV-1 APV-17 envelope (Env) on pseudovirus (HIV-1)
[2] = target: HIV-1 VLGCA1 envelope glycoprotein (Env) on pseudovirus (HIV-1 (clade A))
[3] = target: HIV-1 Env of pseudovirus MGRM-F1-008 (clade F) (HIV-1)
[4] = target: HIV-1 Env of isolate 92UG024 (clade D pseudovirus) (HIV-1)
[5] = target: HIV-1 Env of isolate MGRM-D-028 (clade D pseudovirus) (HIV-1)
[6] = target: HIV-1 Env of isolate MGRM-D-013 (clade D pseudovirus) (HIV-1)
[7] = target: HIV-1 Env of pseudovirus MGRM-G-028 (HIV-1)
[8] = target: HIV-1 93UG077 envelope (Env) on pseudovirus (HIV-1)
[9] = target: HIV-1 Env of isolate VLGCB3, clade B (HIV-1)
[10] = target: HIV-1 Env of pseudovirus MGRM-F1-020 (clade F) (HIV-1)
[11] = target: HIV-1 Env of isolate MGRM-Chronic-B-001 (HIV-1)
[12] = target: HIV-1 Env of isolate MGRM-D-012 (pseudovirus) (HIV-1)
[13] = target: HIV-1 Env of isolate MGRM-F1-015 (HIV-1)
[14] = target: HIV-1 Env of pseudovirus isolate MGRM-C-028 (clade C) (HIV-1)
[15] = target: HIV-1 JR-CSF Env I307A (HIV-1 (isolate JR-CSF, clade B)) (UniProt P20871)
[16] = target: HIV-1 Env of isolate MGRM-A-006 (pseudovirus) (HIV-1)
[17] = target: HIV-1 Env of pseudovirus isolate MGRM-C-026 (clade C) (HIV-1)
[18] = target: HIV-1 Env of pseudovirus isolate MGRM-C-007 (clade C) (HIV-1)
[19] = target: HIV-1 Env of isolate MGRM-AE-008 (subtype AE) (HIV-1)
[20] = target: HIV-1 JR-CSF Env I423A (I4234 in the source) (HIV-1 (isolate JR-CSF)) (UniProt P20871)
[21] = target: HIV-1 Env of isolate 94KE105 (subtype AC) (HIV-1)
[22] = target: HIV-1 Env of isolate 92UG046 (pseudovirus) (HIV-1)
[23] = target: HIV-1 envelope glycoprotein (Env) of isolate MGRM-Chronic-B-011, on pseudovirus (HIV-1)
[24] = target: HIV-1 Env of isolate MGRM-AG-012 (pseudovirus) (HIV-1)
[25] = target: HIV-1 envelope glycoprotein (Env) of isolate SC422661.8, on pseudovirus (HIV-1)
[26] = target: HIV-1 Env of isolate MGRM-F1-023 (pseudovirus) (HIV-1)
[27] = target: HIV-1 envelope glycoprotein (Env) of isolate APV_17, on pseudovirus (HIV-1)
[28] = target: HIV-1 envelope glycoprotein (Env) of isolate MGRM-Chronic-B-004, on pseudovirus (HIV-1)
[29] = target: HIV-1 MGRM-A-010 Env (HIV-1)
[30] = target: HIV-1 envelope glycoprotein (Env) of isolate MG RM-A-013, subtype A (HIV-1)
[31] = target: HIV-1 Env of isolate MGRM-AE-008 (pseudovirus) (HIV-1)
[32] = target: HIV-1 envelope glycoprotein (Env) of isolate MGRM-AE-003, subtype AE (HIV-1)
[33] = target: HIV-1 envelope glycoprotein (Env) of isolate MG RM-A-007, subtype A (HIV-1)

Row | Substance | neutralization IC50 [1] | IC50 (µg/ml), pseudovirus neutralization [2] | IC50 [3] | IC50, pseudovirus neutralization [4] | IC50, pseudovirus neutralization [5] | IC50, pseudovirus neutralization [6] | IC50 (µg/ml), pseudovirus neutralization [7] | neutralization IC50 [8] | IC50 (µg/ml), pseudovirus neutralization [9] | IC50 [10] | Fold IC50 increase relative to wild-type [15] | Fold IC50 increase relative to wild-type (pseudovirus neutralization) [20] | further results
1 | 1495_C14 (PGC14) (antibody) | > 50 µg/mL | > 50 µg/mL | > 50 µg/mL | > 50 µg/mL | > 50 µg/mL | > 50 µg/mL | > 50 µg/mL | > 50 µg/mL | 21 µg/mL | > 50 µg/mL |  |  | 
2 | 2F5 (antibody) | 2 µg/mL | 3.9 µg/mL | 1.61 µg/mL | 0.95 µg/mL | > 50 µg/mL | 2.12 µg/mL | 2.24 µg/mL | 4.45 µg/mL | > 50 µg/mL | 0.59 µg/mL |  |  | 
3 | 5136_H01 (PGT-131) (antibody) |  |  |  |  |  |  |  |  |  |  | > 170 fold | > 80 fold | IC50 (µg/mL), pseudovirus neutralization [11]: > 50 µg/mL; IC50 (µg/mL), pseudovirus neutralization [12]: > 50 µg/mL; IC50 (µg/mL), pseudovirus neutralization [13]: > 50 µg/mL; IC50, pseudovirus neutralization [14]: > 50 µg/mL; IC50 (µg/mL), pseudovirus neutralization [16]: > 50 µg/mL; IC50, pseudovirus neutralization [17]: 1.67 µg/mL; IC50, pseudovirus neutralization [18]: > 50 µg/mL; IC50, pseudovirus neutralization [19]: > 50 µg/mL; IC50, pseudovirus neutralization [21]: 0.013 µg/mL; IC50 (µg/mL), pseudovirus neutralization [22]: > 50 µg/mL
4 | b12 (antibody) | > 25 µg/mL | > 50 µg/mL | > 50 µg/mL | 45.6 µg/mL | 0.78 µg/mL | > 50 µg/mL | > 50 µg/mL | 41.1 µg/mL | 0.15 µg/mL | > 50 µg/mL |  |  | 
5 | 5114_A19 (PGT-128) (antibody) |  |  |  |  |  |  |  |  |  |  | 3.7 fold | 2.6 fold | IC50 (µg/mL), pseudovirus neutralization [11]: > 50 µg/mL; IC50 (µg/mL), pseudovirus neutralization [12]: > 50 µg/mL; IC50 (µg/mL), pseudovirus neutralization [13]: > 50 µg/mL; IC50, pseudovirus neutralization [14]: 14.4 µg/mL; IC50 (µg/mL), pseudovirus neutralization [16]: > 50 µg/mL; IC50, pseudovirus neutralization [17]: 0.007 µg/mL; IC50, pseudovirus neutralization [18]: 0.111 µg/mL; IC50, pseudovirus neutralization [19]: > 50 µg/mL; IC50, pseudovirus neutralization [21]: 0.007 µg/mL; IC50 (µg/mL), pseudovirus neutralization [22]: > 50 µg/mL
6 | 5123_A06 (PGT-125) (antibody) |  |  |  |  |  |  |  |  |  |  | 5 fold | 5 fold | IC50, pseudovirus neutralization [23]: 3.23 µg/mL; IC50 (µg/mL), pseudovirus neutralization [24]: > 50 µg/mL; IC50, pseudovirus neutralization [25]: 30.1 µg/mL; IC50 (µg/mL), pseudovirus neutralization [26]: 0.12 µg/mL; IC50, pseudovirus neutralization [27]: 8.06 µg/mL; IC50, pseudovirus neutralization [28]: 0.007 µg/mL; IC50, pseudovirus neutralization [29]: 0.0025 µg/mL; IC50, pseudovirus neutralization [30]: 0.014 µg/mL; IC50 (µg/mL), pseudovirus neutralization [31]: > 50 µg/mL; IC50, pseudovirus neutralization [32]: 0.092 µg/mL; IC50, pseudovirus neutralization [33]: > 50 µg/mL
7 | 4E10 (antibody) | 5.1 µg/mL | 4.58 µg/mL | 2.75 µg/mL | 2.17 µg/mL | 1.28 µg/mL | 5.38 µg/mL | 6.32 µg/mL | 11.2 µg/mL | 5.76 µg/mL | 0.66 µg/mL |  |  | 
8 | 2G12 (antibody) | > 50 µg/mL | > 50 µg/mL | > 50 µg/mL | 0.42 µg/mL | > 50 µg/mL | > 50 µg/mL | 28.2 µg/mL | > 50 µg/mL | 7.9 µg/mL | > 50 µg/mL |  |  | 
9 | 1443_C16 (PG16) (TCN-116) (antibody) | > 50 µg/mL | 0.18 µg/mL | > 50 µg/mL | 24 µg/mL | > 50 µg/mL | 0.11 µg/mL | 3.09 µg/mL | > 50 µg/mL | 0.4 µg/mL | 4.35 µg/mL |  |  | 
10 | 4858_P08 (PGT-123) (antibody) |  |  |  |  |  |  |  |  |  |  | 5.9 fold | 1.5 fold | IC50, pseudovirus neutralization [23]: > 50 µg/mL; IC50 (µg/mL), pseudovirus neutralization [24]: > 50 µg/mL; IC50, pseudovirus neutralization [25]: 0.039 µg/mL; IC50 (µg/mL), pseudovirus neutralization [26]: 0.053 µg/mL; IC50, pseudovirus neutralization [27]: 0.114 µg/mL; IC50, pseudovirus neutralization [28]: 0.008 µg/mL; IC50, pseudovirus neutralization [29]: 0.492 µg/mL; IC50, pseudovirus neutralization [30]: 0.565 µg/mL; IC50 (µg/mL), pseudovirus neutralization [31]: > 50 µg/mL; IC50, pseudovirus neutralization [32]: > 50 µg/mL; IC50, pseudovirus neutralization [33]: > 50 µg/mL
11 | 5145_B14 (PGT-127) (antibody) |  |  |  |  |  |  |  |  |  |  | 10.2 fold | 0.5 fold | IC50, pseudovirus neutralization [23]: 0.297 µg/mL; IC50 (µg/mL), pseudovirus neutralization [24]: > 50 µg/mL; IC50, pseudovirus neutralization [25]: 36.7 µg/mL; IC50 (µg/mL), pseudovirus neutralization [26]: 0.119 µg/mL; IC50, pseudovirus neutralization [27]: 10.4 µg/mL; IC50, pseudovirus neutralization [28]: 0.018 µg/mL; IC50, pseudovirus neutralization [30]: 0.029 µg/mL; IC50 (µg/mL), pseudovirus neutralization [31]: > 50 µg/mL; IC50, pseudovirus neutralization [32]: > 50 µg/mL; IC50, pseudovirus neutralization [33]: > 50 µg/mL
12 | 5147_N06 (PGT-130) (antibody) |  |  |  |  |  |  |  |  |  |  | 1000 fold | > 1000 fold | IC50 (µg/mL), pseudovirus neutralization [11]: > 50 µg/mL; IC50 (µg/mL), pseudovirus neutralization [12]: > 50 µg/mL; IC50 (µg/mL), pseudovirus neutralization [13]: > 50 µg/mL; IC50, pseudovirus neutralization [14]: > 50 µg/mL; IC50 (µg/mL), pseudovirus neutralization [16]: > 50 µg/mL; IC50, pseudovirus neutralization [17]: 0.036 µg/mL; IC50, pseudovirus neutralization [18]: > 50 µg/mL; IC50, pseudovirus neutralization [19]: > 50 µg/mL; IC50, pseudovirus neutralization [21]: 0.004 µg/mL; IC50, pseudovirus neutralization [29]: 0.0054 µg/mL; IC50 (µg/mL), pseudovirus neutralization [22]: > 50 µg/mL
